± gives the uncertainty stated by the source.
Assay: self-splicing fitness, log relative to wild type (ln ratio); higher = more splicing; Tetrahymena group I intron in knt gene, E. coli kanamycin selection, DiMSum; sequences stand for … in CUCUCU…GGAGGGAAAAGUUAUCAGGCAUGCACCUGGUAGCUAGUCUUUAAACCAAUAGAUUGCAUCGGUUUAAAAGGCAAGACCGUCAAAUUGCGGGAAAGGGGUCAACAGCCGUUCAGUACCAAGUCUCAGGGGAAACUUUGAGAUGGCCUUGCAAAGGGUAUGGUAAUAAGCUGACGGACAUGGUCCUAACCACGCAGCCAAGUCCUAAGUCAACAGAUCUUCUGUUGAUAUGGAUGCAGUUCACAGACUAAAUGUCGGUCGGGGAAGAUGUAUUCUUCUCAUAAGAUAUAGUCGGACCUCUCCUUAAUGGGAGCUAGCGGAUGAAGUGAUGCAACACUGGAGCCGCUGGGAACUAAUUUGUAUGCGAAAGUAUAUUGAUUAGUUUUGGAGUACUCGUGGUCG
Method in brief: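 Six replicate transformations of E. coli BL21(DE3) with a pET-22b(+) library were grown overnight at 37°C or 30°C. The library randomised all eight P1ex-region intron nucleotides, the intron lying in the knt kanamycin-resistance gene, and plates were LB agar with or without 25 μg/mL kanamycin plus 100 μg/mL carbenicillin, 50 μM IPTG and 0.2% rhamnose. Pooled colonies were amplicon-sequenced on an Illumina HiSeq 2500, and fitness is the DiMSum error-weighted combination of wild-type-normalised replicate fold changes, kanamycin versus none.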

Sequence	self-splicing fitness (ln) (30 °C)	self-splicing fitness (ln) (37 °C)
GGACAGCAAUAUUACGACCU	-0.544 ± 0.077	-0.13 ± 0.087
AGUGAGCAAUAUUACGGGUG	-3.71 ± 0.17	-2.79 ± 0.21
CGGCAGCAAUAUUACGCAAG	-1.93 ± 0.13	-1.01 ± 0.16
GAACAGCAAUAUUACGGGGG	-2.08 ± 0.15	-2.42 ± 0.2
UUGCAGCAAUAUUACGACCC	–	-0.535 ± 0.4
ACGAAGCAAUAUUACGGUUA	-1.58 ± 0.095	-0.445 ± 0.079
CAUGAGCAAUAUUACGGGGA	-3.14 ± 0.19	-3.03 ± 0.22
UACUAGCAAUAUUACGGCAA	-0.353 ± 0.12	0.301 ± 0.12
UUUGAGCAAUAUUACGUAAG	-1.29 ± 0.056	-0.487 ± 0.078
UUAAAGCAAUAUUACGGUGU	-2.73 ± 0.11	-1.29 ± 0.1
UGCCAGCAAUAUUACGGAGU	-4.74 ± 0.27	-1.34 ± 0.13
UUCCAGCAAUAUUACGUACU	–	-1.82 ± 0.21
CGGCAGCAAUAUUACGGGUU	-4.26 ± 0.28	-2.87 ± 0.33
AUACAGCAAUAUUACGAUAC	-2.01 ± 0.075	-1.08 ± 0.088
ACGGAGCAAUAUUACGGAAA	–	-2.15 ± 0.24
ACAAAGCAAUAUUACGCGGC	-2.91 ± 0.13	-3.04 ± 0.21
GGAUAGCAAUAUUACGCUGU	-1.65 ± 0.25	-2.68 ± 0.38
AACUAGCAAUAUUACGCCUA	-0.593 ± 0.11	-0.206 ± 0.11
GGCAAGCAAUAUUACGCGUG	-1.95 ± 0.088	-2.11 ± 0.095
UUGGAGCAAUAUUACGUGUA	-3.69 ± 0.29	–
CAAUAGCAAUAUUACGCACA	-2.3 ± 0.12	-1.4 ± 0.12
ACGGAGCAAUAUUACGUGUG	-3.92 ± 0.19	-2.56 ± 0.14
GUAAAGCAAUAUUACGGUAC	-1.61 ± 0.12	-1.26 ± 0.18
AAUCAGCAAUAUUACGGACU	-0.329 ± 0.1	-0.697 ± 0.099
CCUUAGCAAUAUUACGAAAU	-3.26 ± 0.29	-2.12 ± 0.31
ACUAAGCAAUAUUACGAGUG	-1.42 ± 0.08	-0.758 ± 0.11
AACAAGCAAUAUUACGAAGG	-2.77 ± 0.19	-1.95 ± 0.24

Sequence	self-splicing fitness (ln) (30 °C)	self-splicing fitness (ln) (37 °C)
UGAGAGCAAUAUUACGUUAC	–	-1.79 ± 0.3
UAACAGCAAUAUUACGUCUA	-0.13 ± 0.049	0.144 ± 0.06
AGAUAGCAAUAUUACGCCUC	-3.23 ± 0.26	-2.26 ± 0.29
ACUGAGCAAUAUUACGUAAG	-2.02 ± 0.086	-0.834 ± 0.1
UAGAAGCAAUAUUACGGGCG	0.0568 ± 0.11	-0.38 ± 0.13
UCGUAGCAAUAUUACGUCUU	-2.7 ± 0.15	-0.44 ± 0.14
UAACAGCAAUAUUACGAGAU	-4.15 ± 0.33	-2.9 ± 0.2
UCUGAGCAAUAUUACGACUU	-3.11 ± 0.33	–
GCGAAGCAAUAUUACGUUUC	-2.9 ± 0.2	–
AGUAAGCAAUAUUACGUGGC	-2.68 ± 0.16	-2.54 ± 0.22
UGUCAGCAAUAUUACGGUUG	-0.893 ± 0.049	0.317 ± 0.072
UCUGAGCAAUAUUACGACAG	-1.02 ± 0.12	-1.04 ± 0.15
GAAUAGCAAUAUUACGAGAG	-2.92 ± 0.2	-3.05 ± 0.28
GACGAGCAAUAUUACGCCUU	-3.3 ± 0.4	-1.48 ± 0.24
ACGAAGCAAUAUUACGUGCA	-0.772 ± 0.066	0.325 ± 0.084
AACUAGCAAUAUUACGGAUU	-1.16 ± 0.088	-0.792 ± 0.1
UAGGAGCAAUAUUACGAGAA	-3.23 ± 0.44	-2.68 ± 0.42
CGCGAGCAAUAUUACGCCAC	-3.41 ± 0.47	–
ACCCAGCAAUAUUACGGUUA	-0.324 ± 0.059	-0.361 ± 0.06
GAAUAGCAAUAUUACGGGAG	–	-3.35 ± 0.33
CCACAGCAAUAUUACGUUGC	-3.44 ± 0.13	-2.73 ± 0.14
AAUCAGCAAUAUUACGUAAG	-0.572 ± 0.075	-0.104 ± 0.1
CACAAGCAAUAUUACGCCCG	-0.276 ± 0.12	0.193 ± 0.15
CUUCAGCAAUAUUACGGUUU	-3.8 ± 0.15	-2.55 ± 0.13
GGCGAGCAAUAUUACGACAA	–	-1.05 ± 0.34
UAAGAGCAAUAUUACGCUAG	-3.86 ± 0.26	-1.94 ± 0.21
GUCAAGCAAUAUUACGCACA	-1.21 ± 0.12	-0.776 ± 0.13

Sequence	self-splicing fitness (ln) (30 °C)	self-splicing fitness (ln) (37 °C)
CCGAAGCAAUAUUACGCAUU	-3.01 ± 0.2	-3.77 ± 0.29
UCAGAGCAAUAUUACGUCUG	-2.88 ± 0.12	-2.35 ± 0.14
UCGUAGCAAUAUUACGUAUG	-2.04 ± 0.14	-1.93 ± 0.2
GGAGAGCAAUAUUACGCGUU	-2.46 ± 0.28	-1.82 ± 0.32
GUUCAGCAAUAUUACGUUUU	-0.661 ± 0.052	-0.216 ± 0.062
CCCCAGCAAUAUUACGCCAU	-2.14 ± 0.12	-2.32 ± 0.17
AACAAGCAAUAUUACGAUCU	-0.25 ± 0.062	-0.072 ± 0.08
UCGCAGCAAUAUUACGAUAU	-3.68 ± 0.3	-2.41 ± 0.27
UAGGAGCAAUAUUACGUUGA	-2.46 ± 0.18	-1.19 ± 0.17
UGCUAGCAAUAUUACGUUAA	-2.54 ± 0.14	-0.941 ± 0.11
CGCUAGCAAUAUUACGUUGU	-3.3 ± 0.2	-1.59 ± 0.18
CAACAGCAAUAUUACGCCAC	-3.26 ± 0.37	-2.39 ± 0.31
CUCGAGCAAUAUUACGAAUG	-1.91 ± 0.14	-1.15 ± 0.17
AUUCAGCAAUAUUACGAGUA	-1.81 ± 0.2	-1.24 ± 0.18
UUCCAGCAAUAUUACGUUAC	-3.45 ± 0.43	-2.57 ± 0.25
GCAUAGCAAUAUUACGUCAA	-2.89 ± 0.25	-1.82 ± 0.18
AACGAGCAAUAUUACGAUUU	-0.71 ± 0.067	-0.294 ± 0.082
CGGUAGCAAUAUUACGCUUA	–	-1.95 ± 0.2
CUGGAGCAAUAUUACGAAUC	-3.47 ± 0.43	-1.68 ± 0.45
AAAUAGCAAUAUUACGUACA	-1.23 ± 0.071	-0.523 ± 0.092
GAAUAGCAAUAUUACGUGCA	-0.851 ± 0.083	-0.317 ± 0.11
UCGGAGCAAUAUUACGCCGA	-3.12 ± 0.32	–
UGACAGCAAUAUUACGCGAC	-1.82 ± 0.14	-1.86 ± 0.19
CACUAGCAAUAUUACGAUUG	-0.641 ± 0.07	-0.457 ± 0.081
GAUGAGCAAUAUUACGAUAU	-3.81 ± 0.21	-2.58 ± 0.24
